Assay [1] deals with T1, hPRLR on stably transfected BaF/3 cells (human, UniProt P16471 25-622).
T1 sequence (looked up): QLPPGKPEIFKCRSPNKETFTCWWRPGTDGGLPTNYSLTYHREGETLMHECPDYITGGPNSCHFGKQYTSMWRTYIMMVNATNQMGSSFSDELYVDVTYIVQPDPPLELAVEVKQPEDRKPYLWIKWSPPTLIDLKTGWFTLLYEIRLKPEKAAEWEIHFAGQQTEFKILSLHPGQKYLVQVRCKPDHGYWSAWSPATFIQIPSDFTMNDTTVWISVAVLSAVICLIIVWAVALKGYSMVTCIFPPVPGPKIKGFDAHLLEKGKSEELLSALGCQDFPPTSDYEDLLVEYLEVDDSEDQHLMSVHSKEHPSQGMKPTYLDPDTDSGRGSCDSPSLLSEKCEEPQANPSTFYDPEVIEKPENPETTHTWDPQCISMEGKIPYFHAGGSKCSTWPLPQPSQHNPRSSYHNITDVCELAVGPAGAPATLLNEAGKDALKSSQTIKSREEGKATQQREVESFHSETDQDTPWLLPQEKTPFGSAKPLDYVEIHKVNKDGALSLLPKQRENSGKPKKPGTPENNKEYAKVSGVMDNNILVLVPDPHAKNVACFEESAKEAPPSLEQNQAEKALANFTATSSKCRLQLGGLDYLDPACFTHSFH
The assay is described as follows: cell-based or functional assay.

The target in assay [2] is T2, soluble form of the PRL receptor (UniProt P16471 25-234, limits assumed).
T2 construct: extracellular domain; It gives no residues, tag or species; also called prolactin receptor; immobilized receptor
T2 sequence (looked up): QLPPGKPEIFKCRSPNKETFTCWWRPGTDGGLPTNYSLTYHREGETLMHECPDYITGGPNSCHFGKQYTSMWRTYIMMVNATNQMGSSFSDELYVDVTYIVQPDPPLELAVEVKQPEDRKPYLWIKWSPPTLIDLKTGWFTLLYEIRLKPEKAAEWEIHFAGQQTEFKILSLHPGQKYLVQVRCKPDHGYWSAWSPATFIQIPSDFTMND
The assay is described as follows: SPR (Biacore 3000), soluble PRL receptor amine-coupled to CM5 chip, prolactin molecule injected at 500 nM. As for the experimental part: The soluble form of the PRL receptor (25 μg/ml in 10 mM sodium acetate, pH 3.0) was injected into a Biacore 3000 instrument at a flow rate of 5 μl/min and coupled to a CM5 sensor chip by amine coupling chemistry. […] Data evaluation was performed in BiaEvaluation 4.1. Regeneration was accomplished with 4.5 M MgCl₂ between runs.
Using the assay as described in Example 8, the binding of N-terminally pegylated versions of the prolactin antagonist PRL(12-199) Q12S G129R to the prolactin receptor was determined.

For assay [3], the target named is T1, hPRLR on stably transfected BaF/3 cells. The assay is described as follows: cell-based or functional assay. This is another data set of the same source.

Changes are numbered by the printed parent chain. Numbers in names are those of the source. Where two headings read alike, the source gives them in different places.

B1: Ser PRL S33A Q73L G129R K190R (ligand)
chain: SLPICPGGAARCQVTLRDLFDRAVVLSHYIHNLASEMFSEFDKRYTHGRGFITKAINSCHTSSLATPEDKEQALQMNQKDFLSLIVSILRSWNEPLYHLVTEVRGMQEAPEAILSKAVEIEEQTKRLLERMELIVSQVHPETKENEIYPVWSGLPSLQMADEESRLSAYYNLLHCLRRDSHKIDNYLKLLRCRIIHNNNC
In the case of B1, in assay [1], the “EC50 of PRL in the presence of 1 µM Ser PRL S33A Q73L G129R K190R, proliferation of BaF/3 cells stably transfected with hPRLR” value is 531 nM.

B2: N^alpha1-(3-(20 kDa-mPEGyl)propyl) Ser PRL S33A Q73L G129R K190R (ligand)
chain: B1 chain
modifications: N-terminal alpha-amino group (N^alpha1, of the added serine) alkylated with 3-(20 kDa mPEGyl)propyl by reductive amination
Turning to B2, the “EC50 of PRL in the presence of 1 µM Ser PRL S33A Q73L G129R K190R PEG20k, proliferation of BaF/3 cells stably transfected with hPRLR” value in assay [1] was 19 nM.

B3: PRL wildtype (ligand)
chain: LPICPGGAARCQVTLRDLFDRAVVLSHYIHNLSSEMFSEFDKRYTHGRGFITKAINSCHTSSLATPEDKEQAQQMNQKDFLSLIVSILRSWNEPLYHLVTEVRGMQEAPEAILSKAVEIEEQTKRLLEGMELIVSQVHPETKENEIYPVWSGLPSLQMADEESRLSAYYNLLHCLRRDSHKIDNYLKLLKCRIIHNNNC
notes: also called wtPRL; human prolactin
Regarding B3, the “EC50, proliferation (AlamarBlue) of BaF/3 cells stably transfected with hPRLR” value in assay [1] and in assay [3] was 0.15 nM throughout. Binding in assay [2] was put at a Kd of 32 nM.

B4: PRL S61A G129R (ligand)
chain: B3 chain with S61A, G129R
With B4, the “EC50 of PRL in the presence of 1 µM PRL S61A G129R, proliferation of BaF/3 cells stably transfected with hPRLR” value in assay [3] came to 116 nM.

B5: N^alpha1-(3-(20 kDa-mPEGyl)propyl)PRL S61 G129R ("PRL S61A G129R PEG20k") (ligand)
chain: B3 chain with S61A, G129R
modifications: N-terminal alpha-amino group (N^alpha1) alkylated with 3-(20 kDa mPEGyl)propyl by reductive amination
Regarding B5, in assay [2], the Kd – broadly, the constant that tells how readily two partners part at equilibrium – was found to be 71 nM. For the same molecule, the “EC50 of PRL in the presence of 1 µM PRL S61A G129R PEG20k, proliferation of BaF/3 cells stably transfected with hPRLR” value in assay [3] was found to be 4.6 nM.

B6: PRL(12-199) Q12S G129R (ligand)
chain: SVTLRDLFDRAVVLSHYIHNLSSEMFSEFDKRYTHGRGFITKAINSCHTSSLATPEDKEQAQQMNQKDFLSLIVSILRSWNEPLYHLVTEVRGMQEAPEAILSKAVEIEEQTKRLLERMELIVSQVHPETKENEIYPVWSGLPSLQMADEESRLSAYYNLLHCLRRDSHKIDNYLKLLKCRIIHNNNC
With B6, in assay [1], the “EC50 of PRL in the presence of 1 µM PRL(12-199) Q12S G129R, proliferation of BaF/3 cells stably transfected with hPRLR” value was 40 nM.

B7: N^alpha,13((4-(2-Methyl-4-(10 kDa mPEGyloxy)butanoylamino)butoxy)imino)acetyl G129R-PRL(13-199) (E2) (ligand)
chain: VTLRDLFDRAVVLSHYIHNLSSEMFSEFDKRYTHGRGFITKAINSCHTSSLATPEDKEQAQQMNQKDFLSLIVSILRSWNEPLYHLVTEVRGMQEAPEAILSKAVEIEEQTKRLLERMELIVSQVHPETKENEIYPVWSGLPSLQMADEESRLSAYYNLLHCLRRDSHKIDNYLKLLKCRIIHNNNC
modifications: alpha-amino group of residue 13 carries ((4-(2-methyl-4-(10 kDa mPEGyloxy)butanoylamino)butoxy)imino)acetyl (oxime formed on the periodate-oxidised N-terminal serine of N^alpha,13-seryl G129R-PRL(13-199))
notes: also called N-terminally pegylated PRL(12-199) Q12S G129R (10 kDa PEG)
Molecule B7 came in with a Kd in assay [2] of 55 nM.

B8: N^alpha,13((4-(4-(20 kDa mPEGyloxy)butanoylamino)butoxy)imino)acetyl G129R-PRL(13-199) (E3) (ligand)
chain: B7 chain
modifications: alpha-amino group of residue 13 carries ((4-(4-(20 kDa mPEGyloxy)butanoylamino)butoxy)imino)acetyl (oxime formed on the periodate-oxidised N-terminal serine of N^alpha,13-seryl G129R-PRL(13-199))
notes: also called N-terminally pegylated PRL(12-199) Q12S G129R (20 kDa PEG)
With B8, the equilibrium dissociation constant (Kd) in assay [2] worked out at 70 nM.

B9: N^alpha,13((4-(3-(5 kDa mPEGyloxy)propionylamino)butoxy)imino)acetyl G129R-PRL(13-199) (E4) (ligand)
chain: B7 chain
modifications: alpha-amino group of residue 13 carries ((4-(3-(5 kDa mPEGyloxy)propionylamino)butoxy)imino)acetyl (oxime formed on the periodate-oxidised N-terminal serine of N^alpha,13-seryl G129R-PRL(13-199))
notes: also called N-terminally pegylated PRL(12-199) Q12S G129R (5 kDa PEG)
Molecule B9 showed a dissociation constant (Kd) in assay [2] of 42 nM.
